From IntAct's records for PubMed 17306257

B1: SH3 domain-binding protein 2 (Homo sapiens), P78314 (parent)
chain: MAAEEMHWPVPMKAIGAQNLLTMPGGVAKAGYLHKKGGTQLQLLKWPLRFVIIHKRCVYYFKSSTSASPQGAFSLSGYNRVMRAAEETTSNNVFPFKIIHISKKHRTWFFSASSEEERKSWMALLRREIGHFHEKKDLPLDTSDSSSDTDSFYGAVERPVDISLSPYPTDNEDYEHDDEDDSYLEPDSPEPGRLEDALMHPPAYPPPPVPTPRKPAFSDMPRAHSFTSKGPGPLLPPPPPKHGLPDVGLAAEDSKRDPLCPRRAEPCPRVPATPRRMSDPPLSTMPTAPGLRKPPCFRESASPSPEPWTPGHGACSTSSAAIMATATSRNCDKLKSFHLSPRGPPTSEPPPVPANKPKFLKIAEEDPPREAAMPGLFVPPVAPRPPALKLPVPEAMARPAVLPRPEKPQLPHLQRSPPDGQSFRSFSFEKPRQPSQADTGGDDSDEDYEKVPLPNSVFVNTTESCEVERLFKATSPRGEPQDGLYCIRNSSTKSGKVLVVWDETSNKVRNYRIFEKDSKFYLEGEVLFVSVGSMVEHYHTHVLPSHQSLLLRHPYGYTGPR

Variants of: B1
Conditions: with sh3k1_human SH3KBP1, Q96B97
Sequence of sh3k1_human SH3KBP1, Q96B97 (Q96B97 whole entry): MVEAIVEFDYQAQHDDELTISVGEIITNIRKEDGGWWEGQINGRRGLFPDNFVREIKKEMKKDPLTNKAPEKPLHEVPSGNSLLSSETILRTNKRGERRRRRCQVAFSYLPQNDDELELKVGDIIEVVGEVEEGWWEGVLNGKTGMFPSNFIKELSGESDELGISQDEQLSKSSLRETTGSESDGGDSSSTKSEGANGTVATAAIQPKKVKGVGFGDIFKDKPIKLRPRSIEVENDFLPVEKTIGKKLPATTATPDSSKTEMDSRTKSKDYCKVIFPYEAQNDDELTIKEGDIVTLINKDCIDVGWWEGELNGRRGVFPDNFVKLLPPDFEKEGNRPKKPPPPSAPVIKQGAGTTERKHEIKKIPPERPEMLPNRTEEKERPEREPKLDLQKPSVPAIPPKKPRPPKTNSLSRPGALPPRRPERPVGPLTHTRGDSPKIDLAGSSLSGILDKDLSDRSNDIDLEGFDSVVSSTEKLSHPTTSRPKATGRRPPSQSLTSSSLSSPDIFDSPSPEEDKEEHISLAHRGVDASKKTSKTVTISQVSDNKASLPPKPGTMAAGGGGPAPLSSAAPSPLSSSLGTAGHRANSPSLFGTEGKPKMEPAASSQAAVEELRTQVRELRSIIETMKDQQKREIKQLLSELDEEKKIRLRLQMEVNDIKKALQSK

| effect of a mutation on the interaction | Variant |
| --- | --- |
| decreasing interaction | MAAEEMHWPVPMKAIGAQNLLTMPGGVAKAGYLHKKGGTQLQLLKWPLRFVIIHKRCVYYFKSSTSASPQGAFSLSGYNRVMRAAEETTSNNVFPFKIIHISKKHRTWFFSASSEEERKSWMALLRREIGHFHEKKDLPLDTSDSSSDTDSFYGAVERPVDISLSPYPTDNEDYEHDDEDDSYLEPDSPEPGRLEDALMHPPAYPPPPVPTPAKPAFSDMPRAHSFTSKGPGPLLPPPPPKHGLPDVGLAAEDSKRDPLCPRRAEPCPRVPATPRRMSDPPLSTMPTAPGLRKPPCFRESASPSPEPWTPGHGACSTSSAAIMATATSRNCDKLKSFHLSPRGPPTSEPPPVPANKPKFLKIAEEDPPREAAMPGLFVPPVAPRPPALKLPVPEAMARPAVLPRPEKPQLPHLQRSPPDGQSFRSFSFEKPRQPSQADTGGDDSDEDYEKVPLPNSVFVNTTESCEVERLFKATSPRGEPQDGLYCIRNSSTKSGKVLVVWDETSNKVRNYRIFEKDSKFYLEGEVLFVSVGSMVEHYHTHVLPSHQSLLLRHPYGYTGPR [R213A] |
